According to patent publication US20160228563A1 (USTAV ORGANICKE CHEMIE A BIOCHEMIE AKADEMIE VED CR V V I, published 2016):
Square brackets hold non-standard residues; d marks the D form. * marks the point of attachment. 1Nal = N[C@@H](Cc1cccc2ccccc12)C(=O)O; Stearoyl = CCCCCCCCCCCCCCCCCC(=O)*; Palmitoyl = CCCCCCCCCCCCCCCC(=O)*; Nle = CCCC[C@H](N)C(=O)O

T1: rat PrRP receptor (GPR10) in RC-4B/C rat pituitary cells (rat, UniProt Q64121 1-370)
T1 construct: whole, on cells; receptor as expressed by RC-4B/C cells (ATCC); also called rat receptor; rat RC-4B/C cell receptor
T1 sequence (looked up): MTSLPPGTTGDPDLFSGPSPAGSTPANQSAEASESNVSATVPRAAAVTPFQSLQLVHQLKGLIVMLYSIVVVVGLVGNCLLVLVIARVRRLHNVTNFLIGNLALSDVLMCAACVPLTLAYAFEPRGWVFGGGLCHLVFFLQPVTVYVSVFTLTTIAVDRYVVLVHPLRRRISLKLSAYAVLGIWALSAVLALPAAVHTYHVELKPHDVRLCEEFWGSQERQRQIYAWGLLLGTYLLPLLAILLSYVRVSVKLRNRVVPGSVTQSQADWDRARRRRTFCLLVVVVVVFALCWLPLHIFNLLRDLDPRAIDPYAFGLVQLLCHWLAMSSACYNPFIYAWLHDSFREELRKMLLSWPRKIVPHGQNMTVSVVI

T2: human PrRP receptor GPR10 transfected in CHO cells (human, UniProt P49683 1-370)
T2 construct: whole, on cells; also called GPR10 human receptor; human GPR10 receptor
T2 sequence (looked up): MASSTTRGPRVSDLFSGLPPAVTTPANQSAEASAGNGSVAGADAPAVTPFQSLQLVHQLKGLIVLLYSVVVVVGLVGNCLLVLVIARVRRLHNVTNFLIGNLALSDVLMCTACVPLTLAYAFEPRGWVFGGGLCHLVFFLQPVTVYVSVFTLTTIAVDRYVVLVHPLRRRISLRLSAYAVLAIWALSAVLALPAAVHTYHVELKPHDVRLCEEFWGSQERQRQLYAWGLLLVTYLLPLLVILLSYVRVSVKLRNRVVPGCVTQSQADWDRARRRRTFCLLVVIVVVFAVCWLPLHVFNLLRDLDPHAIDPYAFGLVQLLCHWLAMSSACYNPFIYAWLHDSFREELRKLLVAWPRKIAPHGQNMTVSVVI


How the values were obtained:
[1] = target: T1, rat PrRP receptor (GPR10) in RC-4B/C …; assay: 125I-rat PrRP31 displacement, RC-4B/C cells
Procedure: (§1) Competitive binding experiments were performed according to Motulsky and Neubig (Motulsky, A., et al., “Analyzing radioligand binding data,” Curr Protoc Neurosci, Chapter 7, Unit 7.5, 2002). Binding experiments were conducted with rat pituitary cells, and with Chinese Hamster Ovary (CHO) cells as follows:
The rat pituitary cell line RC-4B/C (ATCC, Manassas, USA) was grown on 24-well plates which had their bottom coated with polyethyleneimine. The cells were grown to the optimal density of 300-450 thousand cells per well.
(§2) Plates were incubated for 60 minutes at room temperature. After incubation, the cells were solubilized in 0.1 mol/l solution of NaOH, and the radioactivity bound to the cells was counted using a γ-counter. The experiments were performed in duplicate, and repeated at least three times.

[2] = target: T2, human PrRP receptor GPR10 transfected …; assay: 125I-human PrRP31 displacement, CHO-GPR10 cells
Procedure: as §1
CHO cells transfected with human PrRP receptor GPR10 (Perkin Elmer, USA) were grown on 24-well plates coated with polyethyleneimine. The cells were grown to the optimal density of 40-80 thousand cells per well.
as §2

Binder	% of PrRP31 [1] [%]	% of PrRP31 [2] [%]
Palmitoyl-SRAHQHS[Nle]ETRTPDINPAWYTGRGIRPVGR[1Nal]-NH2 [PrRP analog no. 12]	111	
Stearoyl-SRAHQHS[Nle]ETRTPDINPAWYTGRGIRPVGRF-NH2 [PrRP analog no. 9]		7
